Source: US20250332213A1, “EXTENDED-RELEASE INJECTABLE GEL FORMULATIONS CONTAINING ANGIOTENSIN-(1-7) OLIGOPEPTIDES OR VARIANTS THEREOF” (ProNeurogen, Inc., priority 2021, published 2025)
Blank lines part the entries; values can stand above or below the compound they belong to. Where no end group is shown, it is not given here. [ ]: non-standard residue; d: D form. glycan = not defined here

Assays:
[1] = Solubility assessment in various solvents; format: physicochemical; details: for Solubility (in words): in DMSO and PBS, did not require sonication
Method: A small sample containing the (co-)polymer of interest (e.g., PLA or PLGA) and the ANG-(1-7) oligopeptide (total sample size: ˜1 mg) was placed into a microfuge tube. The solvent of interest (e.g., DMSO, NMP, BB, and/or BzOH) was added in μL aliquots until the drug compound was in solution. The samples were left overnight to fully dissolve and were sonicated the following day, as was necessary to fully solubilize the sample. Solubility was determined when/if a clear solution was obtained.
Solubility assessment was performed for the ANG-(1-7) oligopeptide of the disclosure across multiple different solvents shown in Table 6, below. […] All other solvents required sonication to fully dissolve the ANG-(1-7) oligopeptide. DMSO is a suitable starting solvent for gel formulation evaluation.
Solubility of PNA5 in various solvents was tested and for potential use with this peptide. […] All other solvents required sonication to fully dissolve PNA5. DMSO is a suitable starting solvent for gel formulation evaluation using the PNA5 peptide. Benzyl benzoate and benzyl alcohol may also be useful solvents or solvent additives.

[2] = FDA-approved food additive; cited from earlier work

Solubility (in words) [1]: very high solubility
Concentration ([1]; solvent Benzyl Alcohol): 250 mg/mL
Concentration ([1]; solvent Benzyl Benzoate): 250 mg/mL
Concentration ([1]; solvent DMSO): 500 mg/mL
Concentration ([1]; solvent Ethoxylated Castor Oil): 250 mg/mL
Concentration ([1]; solvent Ethyl Laureate): 250 mg/mL
Concentration ([1]; solvent Ethyl Oleate): 250 mg/mL
Concentration ([1]; solvent NMP): 250 mg/mL
Concentration ([1]; solvent Oleic Acid): 250 mg/mL
Concentration ([1]; solvent PBS at pH 7.4): 500 mg/mL
Concentration ([1]; solvent Polyethylene Glycol 300): 250 mg/mL
Concentration ([1]; solvent Triacetin): 250 mg/mL
Concentration ([1]; solvent Triethyl Citrate): 250 mg/mL
Compound: CC[C@H](C)[C@H](NC(=O)[C@H](Cc1ccc(O)cc1)NC(=O)[C@@H](NC(=O)[C@H](CCCNC(=N)N)NC(=O)[C@@H](N)CC(=O)O)C(C)C)C(=O)N[C@@H](Cc1c[nH]cn1)C(=O)N1CCC[C@H]1C(=O)O [ANG-(1-7), Asp-Arg-Val-Tyr-Ile-His-Pro]

Compound: CC(=O)OC[C@H]1O[C@H](OC2(COC(C)=O)O[C@H](COC(=O)C(C)C)[C@@H](OC(=O)C(C)C)[C@@H]2OC(=O)C(C)C)[C@H](OC(=O)C(C)C)[C@@H](OC(=O)C(C)C)[C@@H]1OC(=O)C(C)C (some centres unmarked) [SAIB, sucrose acetoisobutyrate]
safe human daily intake [2]: up to 20 mg/kg

Compound: PNA5: ANG-(1-7) variant, SEQ ID NO: 10: Asp Arg Val Tyr Ile His Ser* (glycosylated serine), carboxyl terminal NH2 ([dD][dR][dV][dY][dI][dH][dS](glycan)-NH2; reading uncertain; also: printed as Asp Arg Val Tyr Ile His Ser*)
Concentration ([1]; Table 9, solvent Benzyl Alcohol (BA)): 100 mg/mL
Concentration ([1]; Table 9, solvent Benzyl Benzoate (BB)): 100 mg/mL
Concentration ([1]; Table 9, solvent DMA): 100 mg/mL
Concentration ([1]; Table 9, solvent DMSO): 500 mg/mL
Concentration ([1]; Table 9, solvent Ethoxylated Castor Oil): 100 mg/mL
Concentration ([1]; Table 9, solvent Ethyl Laurate): 100 mg/mL
Concentration ([1]; Table 9, solvent Ethyl Oleate): 100 mg/mL
Concentration ([1]; Table 9, solvent NMP): 100 mg/mL
Concentration ([1]; Table 9, solvent Oleic Acid): 100 mg/mL
Concentration ([1]; Table 9, solvent PBS): 100 mg/mL
Concentration ([1]; Table 9, solvent Polyethylene Glycol 300): 100 mg/mL
Concentration ([1]; Table 9, solvent Triacetin): 100 mg/mL
Concentration ([1]; Table 9, solvent Triethyl Citrate): 100 mg/mL
Solubility (in words) [1]: high solubility
Observation at 0-24 hours ([1]; solvent Benzyl Alcohol (BA), 100 mg/mL): Clear colorless, fluid
Observation at 0-24 hours ([1]; solvent Benzyl Benzoate (BB), 100 mg/mL): Clear colorless, fluid
Observation at 0-24 hours ([1]; solvent DMA, 100 mg/mL): Insoluble
Observation at 0-24 hours ([1]; solvent DMSO, 500 mg/mL): Clear colorless, fluid
Observation at 0-24 hours ([1]; solvent Ethoxylated Castor Oil, 100 mg/mL): Insoluble
Observation at 0-24 hours ([1]; solvent Ethyl Laurate, 100 mg/mL): Insoluble
Observation at 0-24 hours ([1]; solvent Ethyl Oleate, 100 mg/mL): Insoluble
Observation at 0-24 hours ([1]; solvent NMP, 100 mg/mL): Insoluble
Observation at 0-24 hours ([1]; solvent Oleic Acid, 100 mg/mL): Insoluble
Observation at 0-24 hours ([1]; solvent PBS, 100 mg/mL): Clear colorless, fluid
Observation at 0-24 hours ([1]; solvent Polyethylene Glycol 300, 100 mg/mL): Insoluble
Observation at 0-24 hours ([1]; solvent Triacetin, 100 mg/mL): Insoluble
Observation at 0-24 hours ([1]; solvent Triethyl Citrate, 100 mg/mL): Insoluble
